Where a chain is given by its changes, count along the chain named. Values belong to the binder of their own block, whether it stands above or below them. No end group written: not given here.
Tests used:
[1] = target: T1, human TREM2 on the cell surface (human, UniProt Q9NZC2 19-230); experiment: cell-based or functional assay
T1 sequence: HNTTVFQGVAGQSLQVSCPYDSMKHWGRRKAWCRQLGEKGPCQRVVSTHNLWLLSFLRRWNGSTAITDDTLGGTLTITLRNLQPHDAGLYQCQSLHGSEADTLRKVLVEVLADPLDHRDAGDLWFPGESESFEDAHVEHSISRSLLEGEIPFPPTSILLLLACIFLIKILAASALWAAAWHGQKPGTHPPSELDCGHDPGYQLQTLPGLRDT

[2] = target: T1, human TREM2 on the cell surface; experiment: cell binding, human macrophages, dose titration
[3] = target: T2, human TREM2 full length stalk region peptide (aa 129-172) (human, biotinylated (site not stated)); experiment: ELISA on biotinylated peptide captured by streptavidin; A450 normalised to isotype control
T2 construct: also called Human TREM2 peptide (aa 129-172); full-length TREM2 stalk peptide
T2 peptide: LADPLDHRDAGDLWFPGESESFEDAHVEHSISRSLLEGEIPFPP
Procedure: (§1) TREM2 antibodies were evaluated for binding to human and mouse TREM2 stalk region peptides. […] Antibody binding to TREM2 stalk peptides was detected using standard sandwich ELISA. Briefly, a 96-well half-area ELISA plate was coated with streptavidin overnight at 4° C. The following day, biotinylated TREM2 stalk peptides diluted in 1% BSA/PBS were added to the plate and incubated for 1 hour. Antibodies diluted in 1% BSA/PBS were then added and incubated for 1 hour. Antibodies bound to peptide were detected with anti-human kappa-HRP secondary antibody (Bethyl Laboratories, Inc.) diluted in 1% BSA/PBS. Plates were assayed by reaction with a detection reagent (One-step TMB Ultra, Thermo) and measurement of absorbance at 450 nm (A450) by standard spectrophotometry instrumentation (BioTek®). Data are shown as normalized values (fold over background where background=isotype control).

[4] = target: T3, human TREM2 truncated stalk peptide (aa 149-163) (human, also: biotinylated (site not given here)); experiment: as above
T3 construct: also called Human TREM2 peptide (aa 149-163); truncated stalk peptide containing the ADAM10/17 cleavage site
T3 peptide: SFEDAHVEHSISRSL
Procedure: as §1

[5] = target: T4, mouse TREM2 full length stalk region peptide (aa 131-169) (mouse, UniProt Q99NH8 131-169, biotinylated (site not stated)); experiment: as above
T4 peptide (looked up): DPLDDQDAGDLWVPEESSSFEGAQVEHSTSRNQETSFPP
Procedure: as §1

[6] = target: T5, His-tagged human TREM2 ECD (human, UniProt Q9NZC2 19-172); experiment: SPR (Biacore), antibody captured via anti-human Fab, recombinant TREM2 ECD injected, 1:1 fit
T5 construct: Biacore and HDX say only recombinant human TREM2 (ECD); also called recombinant human TREM2; hTREM2
T5 sequence: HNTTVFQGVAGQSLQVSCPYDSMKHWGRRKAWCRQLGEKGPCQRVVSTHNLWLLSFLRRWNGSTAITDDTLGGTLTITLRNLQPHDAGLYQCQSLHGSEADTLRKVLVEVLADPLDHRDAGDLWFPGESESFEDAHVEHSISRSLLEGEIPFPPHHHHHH
Procedure: (§2) Surface plasmon resonance (Biacore™ 8K instrument) was used to measure anti-TREM2 antibody affinities for human and cynomolgus TREM2 ECD. Anti-TREM2 antibodies were captured using Human Fab Capture Kit (GE Healthcare Life Sciences, Catalog No. 28958325) on a Biacore Series S CM5 sensor chip (GE Healthcare Life Sciences, Catalog No. 29149604). Serial 3-fold dilutions of recombinant human or cynomolgus TREM2 were injected at a flow rate of 30 μL/min. Antibody binding was monitored for 300 seconds, followed by monitoring of antibody dissociation for 600+seconds in HBS-EP+ running buffer (GE Healthcare Life Sciences, Catalog No. BR100669). The binding response was corrected by subtracting the RU value from a blank flow cell. A 1:1 Languir model of simultaneous fitting of kₒₙ and koff was used for kinetics analysis.

[7] = target: T5, His-tagged human TREM2 ECD; experiment: SPR (Biacore)
Procedure: as §2
(§3) Sequence optimization was conducted by searching within CDR sequences for residues that are susceptible to chemical modification (e.g., asparagine deamidation motifs (NG), aspartic acid isomerization motifs (DS), and potential oxidation residues (tryptophan (W) and methionine (M)) and making amino acid substitutions with conservative and germline residues to remove such sequence liabilities. Humanized and sequence-optimized variants of anti-TREM2 antibodies were then analyzed for binding kinetics using Biacore and dose-titrated cell binding to HEK293-H6 cells (see, Example 1 for representative protocols).

[8] = target: T1, human TREM2 on the cell surface; experiment: flow cytometry, dose-titrated binding to HEK293-H6 cells
Procedure: After incubation, the cells were centrifuged and washed in FACS buffer (PBS+0.5% BSA) twice. Mixed cells were resuspended in FACS buffer with human Trustain FcX solution (Biolegend, Catalog No. 422302) at a density of 10⁶/mL per cell line. The mixed cell lines were seeded at 200,000 cells per well in a 96-well round-bottom plate and incubated for 20 minutes at room temperature. After incubation, the cells were centrifuged and incubated with anti-TREM2 antibodies of about 0-200 nM dose titration for 45 minutes on ice. After incubation, the cells were centrifuged and washed with FACS buffer three times. […] After incubation, the cells were washed with FACS buffer three times, resuspended in 100 μL of FACS buffer, and analyzed by flow cytometry (BD FACSCanto II, San Jose, Calif.), for which 30,000 events were obtained for each sample. Mean fluorescence intensity per cells were calculated by FlowJo software and used for generating dose response binding curve.
as §3

- NFAT EC50 (nM), plate coated mAb [1]: 67.7 nM
- pSyk activation (human macrophages) EC50 (nM) [1]: 14.3 nM
- EC50 [2]: 2.1 nM
- fold over background (A450) [3]: 1.3 fold
- fold over background (A450) [4]: 1.2 fold
- fold over background (A450) [5]: 1.1 fold
- Kd [6]: 1.52 nM
B1: CL0020205 (antibody, V domains shown)
VH: EVQLQQSGPVLVKPGASVKMSCKASGYTFTDYYVHWVKQSHGKSLEWIGLINPYTGTTSYNQRFRVKATLTVDKSSSTAYMEVNSLTSEDSAVYYCARSRVYYGSSLFAFWGQGTLVTVSA
VL: DIVMTQSPSSLSVSAGEKVTMSCKSSQSLLNSGNQKNYLAWYQQKPGQPPKLLIYGASTRESGVPDRFTGSGSGTDFTLTISSVQAEDLAVYYCQNDHSYPYTFGGGTKLEIK
notes: also called Clone CL0020205
- Survival EC50 (nM), plate coated mAb, human macrophages [1]: 5.7 nM

- NFAT EC50 (nM), plate coated mAb [1]: 11.7 nM
- pSyk activation (human macrophages) EC50 (nM) [1]: 37.4 nM
- EC50 [2]: 0.9 nM
- fold over background (A450) [3]: 50 fold
- fold over background (A450) [4]: 1.5 fold
- fold over background (A450) [5]: 25 fold
- Kd [6]: 6.27 nM
B3: CL0020210 (antibody, V domains shown)
VH: QIQLVQSGPELRKPGETVKISCKASGYTFTTYGMSWVKQAPGKGLKWMGWINTYSGLPRHSDDFKGRFAFSLETSASTAYLQINNLKNEDTATYFCAREVYYGSRKTAWFAYWGQGTLVTVSA
VL: DLVMSQSPSSLAVSVGERITMTCKSSQSLLYSNDQKNYLAWYQQIPGQSPKLLLYWASTRESGVPDRFTGSGSGTDFTLTISSVKAEDLAVYFCQQYYNYPPTFGAGTKLELK
notes: also called Clone CL0020210; CL020210

- NFAT EC50 (nM), plate coated mAb [1]: 69.9 nM
- pSyk activation (human macrophages) EC50 (nM) [1]: 20.7 nM
- EC50 [2]: 4.8 nM
- fold over background (A450) [3]: 1.8 fold
- fold over background (A450) [4]: 1.6 fold
- fold over background (A450) [5]: 1.6 fold
- Kd [6]: 1.82 nM
B6: CL0020206 (antibody, V domains shown)
VH: EVQLQQSGPVLVKPGASVKMSCKASGYTFTDYYMNWVKQSHGKSLEWIGIINPYSGGISYNQKFKGKAILTVDKSSSTAYMELNSLTSEASAVYYCTRRNWDGRYAMDYWGQGTSVTVSS
VL: DIVMTQSHKFMSTSVGDRVSITYKASQDVGSAVAWYQQKPGQSPKLLIYWTSTRHTGVPDRFTGSGSGTDFTLTISNVQSEDLADYFCQQYSSYPFTFGGGTKLEIK
notes: also called Clone CL0020206

- Kd [7]: 4 nM
- EC50 [8]: 0.31 nM
B11: CL0020188-6 (antibody, V domains shown)
VH: EVQLVESGGGLVQPGGSLRLSCAGSGFTFTDFYMSWVRQAPGKGPEWLSVIRNKANAYTAGYNPSVKGRFTISRDNSKNTLYLQMNSLRAEDTAVYYCARLTYGFDYWGQGTLVTVSS
VL: DIVMTQTPLSLPVTPGEPASISCQSSKSLLHSNGKTYLNWYLQKPGQSPQLLIYWMSTRASGVPDRFSGSGSGTDFTLKISRVEAEDVGVYYCQQFLEYPFTFGQGTKVEIK
notes: Humanized variant of CL0020188 (hVH NA/3 m, hVL NG/graft); also called Clone CL0020188-6

- Kd [7]: 7.3 nM
- EC50 [8]: 0.51 nM
B12: CL0020188-8 (antibody, V domains shown)
VH: B11 VH
VL: B11 VL with N33T
notes: Humanized variant of CL0020188 (hVH NA/3 m, hVL TG/graft); also called Clone CL0020188-8

- NFAT EC50 (nM), plate coated mAb [1]: 98.3 nM
- pSyk activation (human macrophages) EC50 (nM) [1]: 12 nM
- EC50 [2]: 1.3 nM
- fold over background (A450) [3]: 1.3 fold
- fold over background (A450) [4]: 1.1 fold
- fold over background (A450) [5]: 1.1 fold
- Kd [6]: 25.7 nM
B13: CL0020195 (antibody, V domains shown)
VH: EVQLVESGGGLVQPGRSMMLSCSASGFTFSNYHMAWVRQAPTTGLEWVASITTGSGNTYYRHSVKGRFTISRDNAKSTLYLQMDSLRSEDTASYYCARRWYGGYEGYYFDYWGQGVMVTVSS
VL: DIQMTQSPSLLSASVGDRVTLSCKAGQNVNNYLAWYQQKLGEAPKLLIYNANILQTGFPSRFSGTGSGTDFTLTISSLQPEDVATYFCQQYNSWTTFGGGTKLELK
notes: also called Clone CL0020195

Continued, binder first:

B2: CL0020113 (antibody, V domains shown)
VH: QIQLVQSGPELKKPGESLKISCKASGYTFTDYAMQWVKQAPGKGLQYMGWINTQTGKPTYADDFKERFVFSLETSASTAYLKINNLKNDDMATYLCARSYGGEYNWIAYWGQGTLVTVSS
VL: DIVMTQTPSSQAVSAGEKVTMNCKSSQSLLYNENKKNYLAWYQQKPGQSPKLLIYWASTRESGVPDRFIGSGSGTDFTLTISSVQAEDLAVYYCQQSYNFPPTFGGGTKLELK
notes: also called Clone CL0020113
- NFAT EC50 (nM), plate coated mAb [1]: 185 nM
- Survival EC50 (nM), plate coated mAb, human macrophages [1]: 24.8 nM
- pSyk activation (human macrophages) EC50 (nM) [1]: 24.8 nM
- EC50 [2]: 2.1 nM
- fold over background (A450) [3]: 47 fold
- fold over background (A450) [4]: 1.4 fold
- Kd [6]: 7.81 nM

B4: CL0020120 (antibody, V domains shown)
VH: EVQLQQSGPELVRTGASVKISCRASSYSFTDNYIHWVKQTHGRSLEWIGYISGYTGATSYNQKFKGKATFTVDTSSSTAYMQFNSLTSEDSAVYYCARSTMIAPYGMDYWGQGTSVTVSS
VL: B6 VL with S20N, Y23C, G30V, S31T, T51A, S93R, F96L, G100A, I106L
notes: also called Clone CL0020120
- NFAT EC50 (nM), plate coated mAb [1]: 195 nM
- Survival EC50 (nM), plate coated mAb, human macrophages [1]: 17.8 nM
- pSyk activation (human macrophages) EC50 (nM) [1]: 24.2 nM
- EC50 [2]: 1.6 nM
- fold over background (A450) [3]: 1.2 fold
- fold over background (A450) [4]: 1.2 fold
- fold over background (A450) [5]: 1.2 fold
- Kd [6]: 4.04 nM

B5: CL0020127 (antibody, V domains shown)
VH: B6 VH with T28K, I50T, I69T
VL: B6 VL with Y23C, G30S, S31T, T51A, D85E
notes: also called Clone CL0020127
- NFAT EC50 (nM), plate coated mAb [1]: 20.5 nM
- pSyk activation (human macrophages) EC50 (nM) [1]: 11.9 nM
- EC50 [2]: 11 nM
- fold over background (A450) [3]: 1.4 fold
- fold over background (A450) [4]: 1.2 fold
- fold over background (A450) [5]: 1.3 fold
- Kd [6]: 3.37 nM

B7: CL0020188-1 (antibody, V domains shown)
VH: B11 VH with G24A, P45L, L48V, A57G
VL: B11 VL
notes: also called Clone CL0020188-1
- Kd [7]: 2.3 nM
- EC50 [8]: 0.42 nM

B8: CL0020188-5 (antibody, V domains shown)
VH: B11 VH with G24A, P45L, L48V
VL: B11 VL
notes: Humanized variant of CL0020188 (hVH NA/graft, hVL NG/graft); also called Clone CL0020188-5
- Kd [7]: 5.1 nM
- EC50 [8]: 0.45 nM

B9: CL0020188-2 (antibody, V domains shown)
VH: B11 VH with A57G
VL: B11 VL
notes: Humanized variant of CL0020188 (hVH NG/3 m, hVL NG/graft); also called Clone CL0020188-2
- Kd [7]: 3.4 nM
- EC50 [8]: 0.26 nM

B10: CL0020188-3 (antibody, V domains shown)
VH: B11 VH with G24A, P45L, L48V, A57G
VL: B11 VL with N33T
notes: Humanized variant of CL0020188 (hVH NG/graft, hVL TG/graft); also called Clone CL0020188-3
- Kd [7]: 6.8 nM
- EC50 [8]: 0.64 nM
